Measurements published in patent US20160326228A1 (ACCELERON PHARMA, published 2016).
Residue numbers refer to the chain shown, from its start. Numbers in names are those of the source.

Assays:
Activin A [1] = biological target: T1, Activin A (UniProt P08476 311-426); assay: BiaCore; receptor-Fc captured by anti-hFc antibody, ligand injected
T1 construct: also called ActA
T1 sequence (looked up): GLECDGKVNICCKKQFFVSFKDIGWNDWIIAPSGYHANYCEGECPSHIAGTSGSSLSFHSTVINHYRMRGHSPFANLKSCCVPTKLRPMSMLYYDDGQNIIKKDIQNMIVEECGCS
Description: (§1) Binding of certain ActRIIB-Fc proteins and GDF Traps to ligands was tested in a BiaCore™ assay.
(§2) The ActRIIB-Fc variants or wild-type protein were captured onto the system using an anti-hFc antibody. Ligands were injected and flowed over the captured receptor proteins.

[2] = biological target: T2, Growth and Differentiation Factor-11 (GDF11) (UniProt O95390 299-407); assay: as above
T2 construct: also called BMP11
T2 sequence (looked up): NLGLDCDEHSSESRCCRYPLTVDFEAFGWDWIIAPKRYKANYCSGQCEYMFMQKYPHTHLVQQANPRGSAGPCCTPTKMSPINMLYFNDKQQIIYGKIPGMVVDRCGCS
Description: as §1, §2

[3] = biological target: T3, Growth and Differentiation Factor-8 (GDF8) (UniProt O14793 267-375); assay: as above
T3 construct: also called myostatin
T3 sequence (looked up): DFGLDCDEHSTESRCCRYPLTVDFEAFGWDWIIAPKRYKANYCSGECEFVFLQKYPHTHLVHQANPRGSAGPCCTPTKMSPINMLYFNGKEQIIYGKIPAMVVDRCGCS
Description: as §1, §2

Activin B = biological target: T4, Activin B (UniProt P09529 293-407); assay: Biacore; steady-state affinity fit
T4 sequence (looked up): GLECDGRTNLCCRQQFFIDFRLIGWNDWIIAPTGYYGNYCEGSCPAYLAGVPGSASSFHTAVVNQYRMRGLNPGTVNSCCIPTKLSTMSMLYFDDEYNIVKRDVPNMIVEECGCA
Description: (§3) The affinity of GDF Traps and other ActRIIB-hFc proteins for several ligands was evaluated in vitro with a BiacoreTM instrument. Kd values were obtained by steady-state affinity fit due to the very rapid association and dissociation of the complex, which prevented accurate determination of kₒₙ and koff.

Activin A [4] = biological target: T1, Activin A; assay: Biacore; steady-state affinity fit
Description: as §3

[5] = biological target: T2, Growth and Differentiation Factor-11 …; assay: Biacore; steady-state affinity fit
Description: as §3

Activin A [6] = biological target: T1, Activin A; assay: BiaCore; ligand coupled, receptor flowed over
[7] = biological target: T2, Growth and Differentiation Factor-11 …; assay: BiaCore; ligand coupled, receptor flowed over
[8] = biological target: T2, Growth and Differentiation Factor-11 …; assay: BiaCore; ligand coupled, receptor flowed over; legend: <1/5 WT binding

B1: ActRIIB(A24N 20-134)-hFc (Fc fusion)
chain: GRGENETRECIYYNANWELERTNQSGLERCEGEQDKRLHCYASWRNSSGTIELVKKGCWLDDFNCYDRQECVATEENPQVYFCCCEGNFCNERFTHLPEAGGPEVTYEPPPTAPT
notes: also called A24N variant; not shown: linker (if any) and human Fc (hFc)
Activin A [1]
  Kd: 0.104 nM
  koff: 0.000346 s⁻¹
  kon: 3.34e+06 M⁻¹ s⁻¹
[2]
  Kd: 0.0519 nM
  koff: 6.35e-05 s⁻¹

B2: ActRIIB(K74A 20-134)-hFc (Fc fusion)
chain: B1 chain with N5A, K55A
notes: not shown: linker (if any) and human Fc (hFc)
[3]
  Kd: 0.0718 nM
  koff: 2.03e-05 s⁻¹

B3: ActRIIB(P129S, P130R 20-134)-hFc (Fc fusion)
chain: B1 chain with N5A, P110S, P111R
notes: T0017 prints a P129S P130A variant; kept as a separate molecule; not shown: linker (if any) and human Fc (hFc)
Activin A [1]
  Kd: 0.0831 nM
  koff: 0.000417 s⁻¹
  kon: 5.02e+06 M⁻¹ s⁻¹
[3]
  Kd: 1.67 nM
  koff: 0.00018 s⁻¹

B4: ActRIIB(R64K 20-134)-hFc (Fc fusion)
chain: B1 chain with N5A, R45K
notes: as for B2
Activin A [1]
  Kd: 0.0476 nM
  koff: 0.000325 s⁻¹
  kon: 6.82e+06 M⁻¹ s⁻¹
[3]
  Kd: 0.21 nM
  koff: 4.71e-05 s⁻¹
[2]
  Kd: 0.0356 nM
  koff: 2.41e-05 s⁻¹

B5: ActRIIB(L79D 20-134)-hFc (Fc fusion)
chain: GRGEAETRECIYYNANWELERTNQSGLERCEGEQDKRLHCYASWRNSSGTIELVKKGCWDDDFNCYDRQECVATEENPQVYFCCCEGNFCNERFTHLPEAGGPEVTYEPPPTAPTGGGTHTCPPCPAPELLGGPSVFLFPPKPKDTLMISRTPEVTCVVVDVSHEDPEVKFNWYVDGVEVHNAKTKPREEQYNSTYRVVSVLTVLHQDWLNGKEYKCKVSNKALPVPIEKTISKAKGQPREPQVYTLPPSREEMTKNQVSLTCLVKGFYPSDIAVEWESNGQPENNYKTTPPVLDSDGSFFLYSKLTVDKSRWQQGNVFSCSVMHEALHNHYTQKSLSLSPGK
notes: also called GDF Trap
Activin B
  Kd: 0.788 nM
Activin A [4]
  Kd: 13.5 nM
[5]
  Kd: 0.123 nM
[3]
  Kd: 2.15 nM
  koff: 0.00083 s⁻¹
[2]
  Kd: 0.655 nM
  koff: 0.000439 s⁻¹

B6: ActRIIB(L79E 20-134)-hFc (Fc fusion)
chain: B5 chain with D60E
[3]
  Kd: 2.41 nM
  koff: 0.0009 s⁻¹
[2]
  Kd: 0.716 nM
  koff: 0.000274 s⁻¹

B7: ActRIIB(R64K 20-129)-hFc (Fc fusion)
chain: GRGEAETRECIYYNANWELERTNQSGLERCEGEQDKRLHCYASWKNSSGTIELVKKGCWLDDFNCYDRQECVATEENPQVYFCCCEGNFCNERFTHLPEAGGPEVTYEPP
notes: as for B2
Activin A [1]
  Kd: 0.0841 nM
  koff: 0.000628 s⁻¹
  kon: 7.46e+06 M⁻¹ s⁻¹
[3]
  Kd: 2.15 nM
  koff: 0.000209 s⁻¹

B8: Soluble ActRIIB-Fc WT (64A) (Fc fusion, UniProt Q13705 19-119, looked up)
chain: SGRGEAETRECIYYNANWELERTNQSGLERCEGEQDKRLHCYASWANSSGTIELVKKGCWLDDFNCYDRQECVATEENPQVYFCCCEGNFCNERFTHLPEA
notes: whole entry named; not shown: linker (if any) and Fc
Activin A [6]
  Kd: 180 nM
[7]
  Kd: 260 nM

B9: Soluble ActRIIB-Fc variant D54A (Fc fusion)
chain: GRGEAETRECIYYNANWELERTNQSGLERCEGEQAKRLHCYASWANSSGTIELVKKGCWLDDFNCYDRQECVATEENPQVYFCCCEGNFCNERFTHLPEA
notes: as for B8
[7]
  binding result: no binding

B10: Soluble ActRIIB-Fc variant D80A (Fc fusion)
chain: B9 chain with A35D, D61A
notes: as for B8
Activin A [6]
  binding result: no binding
[7]
  binding result: no binding

B11: Soluble ActRIIB-Fc variant D80F (Fc fusion)
chain: B9 chain with A35D, D61F
notes: as for B8
Activin A [6]
  binding result: no binding
[7]
  binding result: no binding

B12: Soluble ActRIIB-Fc variant D80G (Fc fusion)
chain: B9 chain with A35D, D61G
notes: as for B8
Activin A [6]
  binding result: no binding
[7]
  binding result: no binding

B13: Soluble ActRIIB-Fc variant D80I (Fc fusion)
chain: B9 chain with A35D, D61I
notes: as for B8
Activin A [6]
  binding result: no binding
[8]
  binding relative to WT: < 0.2 fold

B14: Soluble ActRIIB-Fc variant D80M (Fc fusion)
chain: B9 chain with A35D, D61M
notes: as for B8
Activin A [6]
  binding result: no binding
[7]
  binding result: no binding

B15: Soluble ActRIIB-Fc variant D80N (Fc fusion)
chain: B9 chain with A35D, D61N
notes: as for B8
Activin A [6]
  binding result: no binding
[7]
  binding result: no binding

B16: Soluble ActRIIB-Fc variant D80R (Fc fusion)
chain: B9 chain with A35D, D61R
notes: as for B8
Activin A [6]
  binding result: no binding
[7]
  binding result: no binding

B17: Soluble ActRIIB-Fc variant E37A (Fc fusion)
chain: B9 chain with E18A, A35D
notes: as for B8
Activin A [6]
  binding result: no binding
[7]
  binding result: no binding

B18: Soluble ActRIIB-Fc variant K55A (Fc fusion)
chain: B9 chain with A35D, K36A
notes: as for B8
[7]
  binding result: no binding

B19: Soluble ActRIIB-Fc variant K74F (Fc fusion)
chain: B9 chain with A35D, K55F
notes: as for B8
Activin A [6]
  binding result: no binding
[8]
  binding relative to WT: < 0.2 fold

B20: Soluble ActRIIB-Fc variant K74Y (Fc fusion)
chain: B9 chain with A35D, K55Y
notes: as for B8
Activin A [6]
  binding result: no binding
[8]
  binding relative to WT: < 0.2 fold

B21: Soluble ActRIIB-Fc variant L79A (Fc fusion)
chain: B9 chain with A35D, L60A
notes: as for B8
[7]
  binding result: no binding

B22: Soluble ActRIIB-Fc variant R56A (Fc fusion)
chain: B9 chain with A35D, R37A
notes: as for B8
Activin A [6]
  binding result: no binding
[7]
  binding result: no binding

B23: Soluble ActRIIB-Fc variant W78A (Fc fusion)
chain: B9 chain with A35D, W59A
notes: as for B8
Activin A [6]
  binding result: no binding
[7]
  binding result: no binding

B24: Soluble ActRIIB-Fc variant D80K (Fc fusion)
chain: B9 chain with A35D, D61K
notes: as for B8
Activin A [6]
  binding result: no binding
[7]
  binding result: no binding

B25: Soluble ActRIIB-Fc variant K74A (Fc fusion)
chain: B9 chain with A35D, K55A
notes: as for B8
Activin A [6]
  Kd: 4.35 nM
[7]
  Kd: 5.3 nM

B26: Soluble ActRIIB-Fc variant K74I (Fc fusion)
chain: B9 chain with A35D, K55I
notes: as for B8
Activin A [6]
  binding result: no binding
[8]
  binding relative to WT: < 0.2 fold

B27: ActRIIB(L79 25-131)-hFc (Fc fusion)
chain: ETRECIYYNANWELERTNQSGLERCEGEQDKRLHCYASWRNSSGTIELVKKGCWLDDFNCYDRQECVATEENPQVYFCCCEGNFCNERFTHLPEAGGPEVTYEPPPT
notes: also called ActRIIB(25-131)-hFc; not shown: linker (if any) and human Fc (hFc)
Activin B
  Kd: 0.012 nM
Activin A [4]
  Kd: 0.018 nM
[5]
  Kd: 0.031 nM
